Test results: US20210018513A1

Molecular target: synthetic peptide …[pT]ISDSAPSR (human)
Experiment: bead array incubated with the synthetic peptide in digested BSA; bound peptide by MS, peptide left in the sample by dot blot

synthetic peptide …[pT]ISDSAPSR (human), sequence (peptide, as listed by the source): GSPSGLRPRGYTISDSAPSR

binding capacity of a bead array of 5 identical reactive sites, each with 5% of the #3617 antibody: < 15 % of 1 pmol
Substance: Rabbit monoclonal antibody recognizing phosphorylated Thr1462 in human Tuberin (TSC2), Cell Signaling Technology catalog number 3617 (5B12)
